Experimental data reported in PMC3528738.

Biological target: MPERp (HIV-1 (HXBc2 isolate))
Assay: cross-linking; peptides (10 µg) in solution incubated with 20 µM BS3 for 1 h at 37°C, TCA precipitation, Tricine SDS-PAGE; detection by Western blot with MAb2F5 or by NBD fluorescence in the gel

Sequence of MPERp (peptide) (P03375 656-683): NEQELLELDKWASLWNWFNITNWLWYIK

Question: Which stoichiometry N does the source give for MPERp (peptide) here?
Answer: 2
